The text below walks through data of patent publication US20260098059A1 (ENDOMET BIOSCIENCES, published 2026).

The target of experiment [1] is T1, β-catenin (UniProt P35222 134-665, limits assumed, biotinylated in the SPR and plate assays).
T1 sequence (looked up): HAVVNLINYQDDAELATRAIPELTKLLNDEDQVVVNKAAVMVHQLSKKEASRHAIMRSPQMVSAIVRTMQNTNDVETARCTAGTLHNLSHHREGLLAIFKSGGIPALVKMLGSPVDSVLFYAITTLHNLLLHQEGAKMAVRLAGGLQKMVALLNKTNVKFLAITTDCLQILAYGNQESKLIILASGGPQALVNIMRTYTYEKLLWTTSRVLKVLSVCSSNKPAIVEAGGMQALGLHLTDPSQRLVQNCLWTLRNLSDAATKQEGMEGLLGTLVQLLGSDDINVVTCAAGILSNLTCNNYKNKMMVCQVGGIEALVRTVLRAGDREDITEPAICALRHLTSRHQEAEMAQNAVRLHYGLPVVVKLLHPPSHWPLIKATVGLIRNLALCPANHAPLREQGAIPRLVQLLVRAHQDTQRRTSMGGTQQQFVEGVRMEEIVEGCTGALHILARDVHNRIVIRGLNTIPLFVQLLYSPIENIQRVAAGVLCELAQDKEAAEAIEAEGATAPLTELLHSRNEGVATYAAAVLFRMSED
The experiment in a line: cell-based or functional assay.

Experiment [2] addresses T1, β-catenin. Kind of experiment: SPR (Biacore); SPR (Biacore), direct binding. As for the experimental part:
(§1) Biotinylated protein (beta catenin) was immobilized on a high-affinity streptavidin (SA) sensor chip (GE). Peptide at increasing concentrations was flowed over in HBS EP+ buffer at room temperature according to manufacturer's instructions. The maximum binding capacity of the surface (response at saturation) was calculated using the Biacore® system (GE) instructions and binding was measured at each concentration as a data point. The binding levels were determined over a range of analyte concentrations of at least from 20% to 80% saturation of the surface. On rates, off rates, and KD were calculated using Biacore® Insight Evaluation Software software (GE).
(In general: In SPR one partner is held on a chip, and binding of the other changes the refractive index at the surface.)

The target in experiment [3] is T1, β-catenin. The experiment in a line: competitive FP. The method in brief:
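Competitive fluorescence polarization with inhibitor peptide serially diluted from 10 nM to 30 uM; polarization read at 470 nm excitation, 520 nm emission. Experiments performed three times.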

Experiment [4] has as its target T1, β-catenin. Kind of experiment: SPR (Biacore). Here is the method: as §1

Where “and” joins values, the source holds several entries; their conditions need not be identical. Identical values can stand only once. A value given as a limit tells only on which side of the number the result lay.

What is called Kd is the concentration at which binding is half-saturated. The low end stands for a tighter complex, the high end for a looser complex. Regarding KMIRMWFLISFWG (cyclo-H2N-K(Aoc*)MIRM-NmeW-FLISFWG*) [SEQ ID NO: 21], in the experiment with β-catenin [1], the “Wnt Reporter EC50” value is more than 30000 nM. Moreover, the figures for the Kd with β-catenin [2] and with β-catenin [3] were 337 nM and more than 30000 nM, respectively.
On to H-MSRMWFLISFWMG-OH [SEQ ID NO: 14], for which the “Wnt Reporter EC50” value with β-catenin [1] is not above 7500 nM. Besides, the Kd with β-catenin [2] was 250 nM; in the experiment with β-catenin [3], more than 30000 nM.

B1: SEQ ID NO: 16 (peptide)
peptide: MSRMWFLISFWAG
HELM: PEPTIDE1{M.S.R.M.W.F.L.I.S.F.W.[meA].G}$$$$V2.0
SMILES: CC[C@H](C)[C@H](NC(=O)[C@H](CC(C)C)NC(=O)[C@H](Cc1ccccc1)NC(=O)[C@H](Cc1c[nH]c2ccccc12)NC(=O)[C@H](CCSC)NC(=O)[C@H](CCCNC(=N)N)NC(=O)[C@H](CO)NC(=O)[C@@H](N)CCSC)C(=O)N[C@@H](CO)C(=O)N[C@@H](Cc1ccccc1)C(=O)N[C@@H](Cc1c[nH]c2ccccc12)C(=O)N(C)[C@@H](C)C(=O)NCC(=O)O
For the molecule B1, the “Wnt Reporter EC50” value with β-catenin [1] is > 15000 nM and ≤ 22500 nM. Moreover, the Kd with β-catenin [2] is 120 nM; with β-catenin [3] it was more than 30000 nM.

B2: SEQ ID NO: 270 (Ac-Bcl9(347-381)-AβAβK-CONH2) (peptide)
peptide: NPDGLSQEQLEHRERSLQTLRDIQRMLFPDEKEFTAAK
HELM: PEPTIDE1{[ac].N.P.D.G.L.S.Q.E.Q.L.E.H.R.E.R.S.L.Q.T.L.R.D.I.Q.R.M.L.F.P.D.E.K.E.F.T.[bAla].[bAla].K.[am]}$$$$V2.0
SMILES: CC[C@H](C)[C@H](NC(=O)[C@H](CC(=O)O)NC(=O)[C@H](CCCNC(=N)N)NC(=O)[C@H](CC(C)C)NC(=O)[C@@H](NC(=O)[C@H](CCC(N)=O)NC(=O)[C@H](CC(C)C)NC(=O)[C@H](CO)NC(=O)[C@H](CCCNC(=N)N)NC(=O)[C@H](CCC(=O)O)NC(=O)[C@H](CCCNC(=N)N)NC(=O)[C@H](Cc1c[nH]cn1)NC(=O)[C@H](CCC(=O)O)NC(=O)[C@H](CC(C)C)NC(=O)[C@H](CCC(N)=O)NC(=O)[C@H](CCC(=O)O)NC(=O)[C@H](CCC(N)=O)NC(=O)[C@H](CO)NC(=O)[C@H](CC(C)C)NC(=O)CNC(=O)[C@H](CC(=O)O)NC(=O)[C@@H]1CCCN1C(=O)[C@H](CC(N)=O)NC(C)=O)[C@@H](C)O)C(=O)N[C@@H](CCC(N)=O)C(=O)N[C@@H](CCCNC(=N)N)C(=O)N[C@@H](CCSC)C(=O)N[C@@H](CC(C)C)C(=O)N[C@@H](Cc1ccccc1)C(=O)N1CCC[C@H]1C(=O)N[C@@H](CC(=O)O)C(=O)N[C@@H](CCC(=O)O)C(=O)N[C@@H](CCCCN)C(=O)N[C@@H](CCC(=O)O)C(=O)N[C@@H](Cc1ccccc1)C(=O)N[C@H](C(=O)NCCC(=O)NCCC(=O)N[C@@H](CCCCN)C(N)=O)[C@@H](C)O
notes: Bcl9 residues 347-381, acetylated, with beta-Ala-beta-Ala-K added, amidated
B2: the Kd with β-catenin [2] was 546 nM; in the experiment with β-catenin [3], more than 30000 nM.

B3: SEQ ID NO: 20 (peptide)
peptide: KWAQSILNQHVQRVWG
HELM: PEPTIDE1{K.W.[meA].Q.S.I.L.N.Q.H.V.Q.R.V.W.G}$PEPTIDE1,PEPTIDE1,1:R3-16:R2$$$V2.0
SMILES: CC[C@H](C)[C@@H]1NC(=O)[C@H](CO)NC(=O)[C@H](CCC(N)=O)NC(=O)[C@H](C)N(C)C(=O)[C@H](Cc2c[nH]c3ccccc23)NC(=O)[C@@H](N)CCCCNC(=O)CNC(=O)[C@H](Cc2c[nH]c3ccccc23)NC(=O)[C@H](C(C)C)NC(=O)[C@H](CCCNC(=N)N)NC(=O)[C@H](CCC(N)=O)NC(=O)[C@H](C(C)C)NC(=O)[C@H](Cc2c[nH]cn2)NC(=O)[C@H](CCC(N)=O)NC(=O)[C@H](CC(N)=O)NC(=O)[C@H](CC(C)C)NC1=O
Regarding B3, the “Wnt Reporter EC50” value with β-catenin [1] is more than 30000 nM. In addition, the Kd with β-catenin [2] was 48 nM; in the experiment with β-catenin [3] it was more than 30000 nM.

B4: SEQ ID NO: 18 (peptide)
peptide: KAESILDEHVQRVWG
HELM: PEPTIDE1{K.[meA].E.S.I.L.D.E.H.V.Q.R.V.W.G}$PEPTIDE1,PEPTIDE1,1:R3-15:R2$$$V2.0
SMILES: CC[C@H](C)[C@@H]1NC(=O)[C@H](CO)NC(=O)[C@H](CCC(=O)O)NC(=O)[C@H](C)N(C)C(=O)[C@@H](N)CCCCNC(=O)CNC(=O)[C@H](Cc2c[nH]c3ccccc23)NC(=O)[C@H](C(C)C)NC(=O)[C@H](CCCNC(=N)N)NC(=O)[C@H](CCC(N)=O)NC(=O)[C@H](C(C)C)NC(=O)[C@H](Cc2c[nH]cn2)NC(=O)[C@H](CCC(=O)O)NC(=O)[C@H](CC(=O)O)NC(=O)[C@H](CC(C)C)NC1=O
As to B4, in the experiment with β-catenin [1], the “Wnt Reporter EC50” value is more than 30000 nM. Besides, the Kd in the experiment with β-catenin [2] was 76 nM; with β-catenin [3] it was more than 30000 nM.

B5: SEQ ID NO: 19 (peptide)
peptide: KAQSILDEHVQRVWG
HELM: PEPTIDE1{K.[meA].Q.S.I.L.D.E.H.V.Q.R.V.W.G}$PEPTIDE1,PEPTIDE1,1:R3-15:R2$$$V2.0
SMILES: CC[C@H](C)[C@@H]1NC(=O)[C@H](CO)NC(=O)[C@H](CCC(N)=O)NC(=O)[C@H](C)N(C)C(=O)[C@@H](N)CCCCNC(=O)CNC(=O)[C@H](Cc2c[nH]c3ccccc23)NC(=O)[C@H](C(C)C)NC(=O)[C@H](CCCNC(=N)N)NC(=O)[C@H](CCC(N)=O)NC(=O)[C@H](C(C)C)NC(=O)[C@H](Cc2c[nH]cn2)NC(=O)[C@H](CCC(=O)O)NC(=O)[C@H](CC(=O)O)NC(=O)[C@H](CC(C)C)NC1=O
For B5, the “Wnt Reporter EC50” value in the experiment with β-catenin [1] is more than 30000 nM. The Kd in the experiment with β-catenin [2] is 59 nM; with β-catenin [3], more than 30000 nM.

B6: SEQ ID NO: 24 (peptide)
peptide: KMSRMWFLISFWRG
HELM: PEPTIDE1{K.M.S.R.M.W.F.L.I.S.F.W.R.G}$PEPTIDE1,PEPTIDE1,1:R3-14:R2$$$V2.0
SMILES: CC[C@H](C)[C@@H]1NC(=O)[C@H](CC(C)C)NC(=O)[C@H](Cc2ccccc2)NC(=O)[C@H](Cc2c[nH]c3ccccc23)NC(=O)[C@H](CCSC)NC(=O)[C@H](CCCNC(=N)N)NC(=O)[C@H](CO)NC(=O)[C@H](CCSC)NC(=O)[C@@H](N)CCCCNC(=O)CNC(=O)[C@H](CCCNC(=N)N)NC(=O)[C@H](Cc2c[nH]c3ccccc23)NC(=O)[C@H](Cc2ccccc2)NC(=O)[C@H](CO)NC1=O
With B6, in the experiment with β-catenin [1], the “Wnt Reporter EC50” value was more than 30000 nM. Further, the results for the Kd in the experiment with β-catenin [3] and with β-catenin [4] were not above 400 nM and 270 nM, respectively.
Take H-MWESILDEHMQRVWRG-OH [SEQ ID NO: 23]: the “Wnt Reporter EC50” value in the experiment with β-catenin [1] was more than 30000 nM. The figures for the Kd with β-catenin [3] and with β-catenin [4] were not above 400 nM and 1590 nM, respectively.
H-MIRMWFLISFWG-OH [SEQ ID NO: 15]: in the experiment with β-catenin [1], the “Wnt Reporter EC50” value was not above 7500 nM. Besides, in the experiment with β-catenin [4], the Kd was found to be 130 nM.
With H-MWFLISFWG-OH [SEQ ID NO: 17], the “Wnt Reporter EC50” value in the experiment with β-catenin [1] is not above 7500 nM. Further, the Kd in the experiment with β-catenin [3] is > 400 nM and ≤ 1000 nM; in the experiment with β-catenin [4], 314 nM.

B7: SEQ ID NO: 30 (peptide)
peptide: KMAESILDEHVQRVWG
HELM: PEPTIDE1{K.M.[meA].E.S.I.L.D.E.H.V.Q.R.V.W.G}$PEPTIDE1,PEPTIDE1,1:R3-16:R2$$$V2.0
SMILES: CC[C@H](C)[C@@H]1NC(=O)[C@H](CO)NC(=O)[C@H](CCC(=O)O)NC(=O)[C@H](C)N(C)C(=O)[C@H](CCSC)NC(=O)[C@@H](N)CCCCNC(=O)CNC(=O)[C@H](Cc2c[nH]c3ccccc23)NC(=O)[C@H](C(C)C)NC(=O)[C@H](CCCNC(=N)N)NC(=O)[C@H](CCC(N)=O)NC(=O)[C@H](C(C)C)NC(=O)[C@H](Cc2c[nH]cn2)NC(=O)[C@H](CCC(=O)O)NC(=O)[C@H](CC(=O)O)NC(=O)[C@H](CC(C)C)NC1=O
On to B7, for which the “Wnt Reporter EC50” value in the experiment with β-catenin [1] is more than 30000 nM. The same molecule yielded a Kd in the experiment with β-catenin [4] of 123 nM.

B8: SEQ ID NO: 29 (peptide)
peptide: KMPLAISWFEHIG
HELM: PEPTIDE1{K.M.P.L.[meA].I.S.W.F.E.H.I.G}$PEPTIDE1,PEPTIDE1,1:R3-13:R2$$$V2.0
SMILES: CC[C@H](C)[C@@H]1NC(=O)[C@H](Cc2c[nH]cn2)NC(=O)[C@H](CCC(=O)O)NC(=O)[C@H](Cc2ccccc2)NC(=O)[C@H](Cc2c[nH]c3ccccc23)NC(=O)[C@H](CO)NC(=O)[C@H]([C@@H](C)CC)NC(=O)[C@H](C)N(C)C(=O)[C@H](CC(C)C)NC(=O)[C@@H]2CCCN2C(=O)[C@H](CCSC)NC(=O)[C@@H](N)CCCCNC(=O)CNC1=O
Take B8: the “Wnt Reporter EC50” value in the experiment with β-catenin [1] was more than 30000 nM. In addition, the Kd with β-catenin [3] was > 400 nM and ≤ 1000 nM; with β-catenin [4] it was 1030 nM.

B9: SEQ ID NO: 266 (H2N-Tcf4(7-51)-K-CONH2) (peptide)
peptide: H-GGGDDLGANDELISFKDEGEQEEKSSENSSAERDLADVKSSLVNEK-NH2
notes: Tcf4 residues 7-51 with an added C-terminal K, amidated
Regarding B9, the figures for the Kd with β-catenin [3] and with β-catenin [4] were not above 400 nM and 58.2 nM, respectively.
